Residue numbers refer to the chain shown, from its start.
B1: DOMAIN_14746 (protein, listed as Odocoileus virginianus)
chain: VTELLTFKDISVDFTQEEWGQLAPAHRNLYREVMLENYGNLVSVAGCQLSKPSVISQLEKGEEPWMTEKEGAGDPSSDLKS
B2: DOMAIN_14287 (protein, listed as Bos indicus)
chain: VQGSVSFEDVAVGFSQEEWQILGPSQKALYWDVMLENYCNLVSVGYQAPTPNSLFQLEQGGPPWTVEGAALSPTCSGKKLY
B3: DOMAIN_15184 (protein, listed as Acinonyx jubatus)
chain: ASVVFEDVAVNFTPEEWALLNPGQRKLYRDVMLETCRNLSAVGCRSQGNTSTPRPQWSILLNEPPGEDKTGIFTRKDSCSV
B4: DOMAIN_14082 (protein)
chain: SPTLVTFKDIHVNFTREEWNLLDAAQQIMYKDVMLENYKNLVSVGHQLPKPDVILQLEKGEEPWLVERGVRQDTRPDWDTA
modifications: Phyllostomus discolor
B5: DOMAIN_15089 (protein)
chain: SQELVAFEDVLVDFTPEEWQYLNSSQKTLYREVMLETYSNLVSVAGQQDTKPDLILKLELEGPCLAERKISVWSFPEEACQ
modifications: Vulpes vulpes
B6: DOMAIN_14946 (protein, listed as Acinonyx jubatus)
chain: LQVSVSFEDVTVNFSREEWQRLDPAQRRLYRDVTLENYSHLRSVGYQVPKPEVIFKLEQGEGPWTLEGETPHQSCSGEDIG
B7: DOMAIN_14983 (protein, listed as Rhinopithecus roxellana)
chain: MAFEDVAVYFSQEEWGLLDTAQRALYRRVMLDNFALVASLGLSTSRPRVVIQLERGEEPWVPSGTDTVLSRNTYRRRNPGS
B8: DOMAIN_15227 (protein, listed as Rhinopithecus roxellana)
chain: MAFEDVAVYFSQEEWGLLDTAQRALYRHVMLDNFTLVTSLGLSTSRPHVVIQLERGEEPWVPSGKDMTLARNTYRRLNAGE
B9: DOMAIN_14546 (protein)
chain: GLLSFEDVALYFTREEWDTLDWAQKALYRDVMLDNYRHIVSLGFPFPKPEVICQLEQWEEPWILDLPRAGTRKASGSACPD
modifications: Muntiacus muntjak
B10: DOMAIN_14714 (protein, listed as Odocoileus virginianus)
chain: PQESVTFEDVAVNFSYEEWQCLTHAQRHLYTDVMLENYGNMVSLGFSFSKPPLISRLEQGTEPYVQDRQDWEFLNCSYPAA
B11: DOMAIN_13691 (protein, listed as Sapajus apella)
chain: AQESVTFEDVAVNFTDREWQCLTYAQRHLYKDVMLENYGNMVSVGFLFPKPPLISHLERGVEPCVQDPQDRESLSCSCLVS
B12: DOMAIN_15251 (protein, listed as Callithrix jacchus)
chain: AAGRVTFEDVTVSFTKGEWQQLNPEQRELYRDVMLENYGNLVSVGLEETSKPSVILRLEEGKEPWSEEEVLRGGRPEKNWD
B13: DOMAIN_15138 (protein)
chain: CEGSVSFEDVTMDFSREEWQQLDPAQRCLYQDVMLEIYSHLLFVGYNIPNPEIISRMEKGEEPWMREVQLPHQRHRERAFG
modifications: Vulpes vulpes
B14: DOMAIN_18563 (protein, listed as Aotus trivirgatus)
chain: IQGQVNFEDVFVYFSQEEWVLLDEAQRLLYRDVMLENFALMASLGHTSFTSHTVASLVMGPDWVDVTPAVATGTLSGSGPG
B15: DOMAIN_13539 (protein, listed as Gorilla sp.)
chain: CYQDSVTFDDVAVDFTQEEWTLLDSTQRSLYSDVMLENYKNLATVGGQIIKPSLISWLEQEESRTVQGGVLRGRKTQWRGT
B16: DOMAIN_17317 (protein, listed as Otolemur garnettii)
chain: SQASVSFKDVNVEFTQDEWQQMGPAQRNLYRDVMLENYSNLVSVGYCIFKPKVIFRLEQGEEPWSSEEEFSSQRRPKNYRD
B17: DOMAIN_16688 (protein)
chain: SQEQVSFKDVCVDFTREEWYLLDPAQKILYRDVILENYSHLVSVGNCITKPEVIFKIEQGEEPWILEERFPKQCCSERNWK
modifications: Lipotes vexillifer
B18: DOMAIN_12285 (protein, listed as Gorilla sp.)
chain: EPGAVSFADVAVYFCREEWGCLRPAQRTLYRDVMRETYGHLSALGIGGKKPALISWVEEEAELWGPAAQDPEVAKCPTQTD
B19: DOMAIN_12206 (protein, listed as Bos mutus)
chain: QEQVSFKDVCVDFTQEEWYLLDPAQKILYRDVILENYSHLVSVGNCITKPEVIFKIEQGEEPWILEERFPKQWHSGKSYKY
B20: DOMAIN_12114 (protein, listed as Neophocaena asiaeorientalis)
chain: VQASLSFEDVAVRFTWEEWQLLDPSQKDLYRNVMLENYCNLVSVGYQTPKPDSLFQLEQGEPPWRVEGAGQSQTCPEEIWE
B21: DOMAIN_11988 (protein)
chain: MAFEDVAVHFSQEEWGLLDTAQRSLYRRVMLENFALLASLGLSVSRPHVVTQLERGEEPWVLSGVDVTLPQDAQRRPRRGS
modifications: Muntiacus muntjak
B22: DOMAIN_12550 (protein, listed as Ailuropoda melanoleuca)
chain: SDEAFSFEDLSVDFTQKEWQLLNPGQKDLYKDVMLENYSSLVSLGYEIMKPDVIFKLEQGEEPWIGDGEVPSSGCPADMSY
B23: DOMAIN_12231 (protein)
chain: PQESVAFEDVAVYFTAKEWDIMVPAERALYRDVMLENYEAVAFVVPPTSKPALVSHLEQGKESCFTRPQGVLCRNDWRAGL
modifications: Nomascus leucogenys
B24: DOMAIN_11796 (protein, listed as Sus scrofa)
chain: FRGPVTFKDITVEFTQEEWQLLDNAQRTLYREVMQENYHHLISVGYCVNKPNAVFKLKQGKEPWILEVEFPRRNNPEDLWN
B25: DOMAIN_12896 (protein, listed as Macaca fascicularis)
chain: DTVVFEDVVVGFTLEEWALLNPAQRNLYREVMLETFKHLASVDNEAQPKTNGSISQQDTSGEKLSLKQKIEKFTRKHTWAS
B26: DOMAIN_11581 (protein, listed as Equus caballus)
chain: B6 chain with N13D, R21H, R42C, T65M, T70A, G77D, E78D
B27: DOMAIN_13269 (protein, listed as Desmodus rotundus)
chain: B6 chain with N13D, R21H, R31W, R42L, F55L, G77D
B28: DOMAIN_12912 (protein)
chain: B6 chain with R21H
modifications: Puma concolor
B29: DOMAIN_12590 (protein, listed as Bos indicus)
chain: AQEPVTFNDVAVDFTQEEWGQLDLVQRTLYRDVMLETYGHLLSVGNQITKPEVISLLEQGEEPWSMEPAYPLQGTCPAPEI
B30: DOMAIN_12755 (protein, listed as Oryctolagus cuniculus)
chain: SLGPVSFKDVAVGFTQEEWRQLEPAQRRTYREVMLENYSHLVAVGCHFIKPDVITKLERGEEPWIEGGFLPQGCADEVWQA
B31: DOMAIN_12901 (protein, listed as Macaca fascicularis)
chain: B8 chain with D32E
B32: DOMAIN_11944 (protein, listed as Bos indicus)
chain: B10 chain with Y16H, T31K, N75S, A80V, A81S
B33: DOMAIN_13121 (protein, listed as Macaca fascicularis)
chain: GKELLSFEDVAMYFTREEWGRLDWGQKDLYRDVMLENYRNMVLLGFQFPKPEVICQLENWDEQWILDLPRAGSRKASGSAC
B34: DOMAIN_12057 (protein)
chain: LLESVTFGDVAVVFSRDEWLHLDAAQRSLYREVMLENYSALVSLGIPLSIPKLICQLQQGEDPCMVEREIPQDVCLGFKTW
modifications: Muntiacus muntjak
B35: DOMAIN_13277 (protein, listed as Macaca fascicularis)
chain: MTFEDVSVEFTQGEWGQLNPAQKDLYREVMLENFRNLAFLGLPVSKPYVICQLEEGGEPFIVEREVSTGAYSDWERRSKSK
B36: DOMAIN_11359 (protein, listed as Sus scrofa)
chain: AQGQVTFEDVAVCFSQEEWGLLDETQRLLYRSVMLETFSLMASLGLTSSRTHDISQLERWGEPFLSASGAMRATRPTGCWH
B37: DOMAIN_11908 (protein, listed as Canis lupus)
chain: B13 chain with V68I

The molecules below were run on HBEGF locus. Conditions: high-throughput screen of dXR repression of the HBEGF gene; abundance of each domain in the library before and after diphtheria toxin selection; HEK293T cells.
Type: cell-based, human
For B1, the “Log2 (fold change)” value was 2.605. In the case of B2, the “Log2 (fold change)” value is reported as 3.6232. With B3 the “Log2 (fold change)” value was 3.0092. For B4, the “Log2 (fold change)” value was 3.2495. In the case of B5, the “Log2 (fold change)” value is reported as 2.3585. B6 was tested, and the “Log2 (fold change)” value was 3.2842. B7 was tested, and the “Log2 (fold change)” value was 3.704. In the case of B8, the “Log2 (fold change)” value is reported as 3.5532. In the case of B9, the “Log2 (fold change)” value is reported as 3.5039. B10 was tested, and the “Log2 (fold change)” value was 3.2752. With B11 the “Log2 (fold change)” value was 2.6205. For B12, the “Log2 (fold change)” value was 2.2209. With B13 the “Log2 (fold change)” value was 3.1771.

Same assay, conditions: high-throughput screen of dXR repression of the HBEGF gene; change in abundance of each domain in the library before and after diphtheria toxin selection
With B14 the “Log2 (fold change)” value was 3.0406. B15 was tested, and the “Log2 (fold change)” value was 3.4924. B16 was tested, and the “Log2 (fold change)” value was 3.4551. In the case of B17, the “Log2 (fold change)” value is reported as 3.5601.

Same assay, conditions: repressor domain in dXR, repression of the HBEGF gene; abundance of domain in library after vs before diphtheria toxin selection
In the case of B18, the “Log2 (fold change)” value is reported as 2.2573. For B19, the “Log2 (fold change)” value was 2.9101. For B20, the “Log2 (fold change)” value was 3.3227. B21 was tested, and the “Log2 (fold change)” value was 3.5916. B22 was tested, and the “Log2 (fold change)” value was 3.0229. B23 was tested, and the “Log2 (fold change)” value was 2.6703. In the case of B24, the “Log2 (fold change)” value is reported as 2.2811. In the case of B25, the “Log2 (fold change)” value is reported as 2.0413. For B26, the “Log2 (fold change)” value was 3.1882. With B27 the “Log2 (fold change)” value was 2.7236. B28 was tested, and the “Log2 (fold change)” value was 2.7422. With B29 the “Log2 (fold change)” value was 2.5531. In the case of B30, the “Log2 (fold change)” value is reported as 2.8082. In the case of B31, the “Log2 (fold change)” value is reported as 3.5686. For B32, the “Log2 (fold change)” value was 3.2762. With B33 the “Log2 (fold change)” value was 3.353. For B34, the “Log2 (fold change)” value was 2.0631. B35 was tested, and the “Log2 (fold change)” value was 2.9151. With B36 the “Log2 (fold change)” value was 3.1036. For B37, the “Log2 (fold change)” value was 2.894.

From patent US12551573B2, “Compositions and methods for the targeting of PCSK9” (Scribe Therapeutics Inc., priority 2022, dated 2026)
